Experimental data published in patent US20220273789A1.

Target: human IgG (human)
Assay: BLI (Octet), gEgI on Ni-NTA sensor, hIgG in solution; on Response: test concentration or dose not given here

“HSV2-gE_H245S P319G_gI (from UniProt P89475 21-416; P06764 21-256) (receptor)” and “HSV2-gE_H245S P319L_gI (from UniProt P89475 21-416; P06764 21-256) (receptor)” are within 1.5-fold of each other in Kd: 363 nM for the first, 292 nM for the second.

“HSV2-gE_P317F S338G_gI (from UniProt P89475 21-416; P06764 21-256) (receptor)” and “HSV2-gE_P317F S338H_gI (from UniProt P89475 21-416; P06764 21-256) (receptor)” are within 1.5-fold of each other in Kd: 399 nM for the first, 339 nM for the second.

“HSV2-gE_P317F S338L_gI (from UniProt P89475 21-416; P06764 21-256) (receptor)” and “HSV2-gE_P317F V340M_gI (from UniProt P89475 21-416; P06764 21-256) (receptor)” are within 1.5-fold of each other in Kd: 225 nM for the first, 291 nM for the second.

Compared with “HSV2-gE_P317F V340R_gI (from UniProt P89475 21-416; P06764 21-256) (receptor)”, “HSV2-gE_P317F V340W_gI (from UniProt P89475 21-416; P06764 21-256) (receptor)” is 1.6-fold higher in Kd: 372 nM for the first, 577 nM for the second.

“HSV2-gE_P317K S338G_gI (from UniProt P89475 21-416; P06764 21-256) (receptor)” and “HSV2-gE_P317K S338H_gI (from UniProt P89475 21-416; P06764 21-256) (receptor)” are within 1.5-fold of each other in Kd: 238 nM for the first, 338 nM for the second.

“HSV2-gE_P317K S338L_gI (from UniProt P89475 21-416; P06764 21-256) (receptor)” and “HSV2-gE_P317K V340M_gI (from UniProt P89475 21-416; P06764 21-256) (receptor)” are within 1.5-fold of each other in Kd: 252 nM for the first, 297 nM for the second.

“HSV2-gE_P317K V340R_gI (from UniProt P89475 21-416; P06764 21-256) (receptor)” gave a Kd of 241 nM.

Going from “HSV2-gE_H245S P319G_gI (from UniProt P89475 21-416; P06764 21-256) (receptor)” to “HSV2-gE_H245S P319L_gI (from UniProt P89475 21-416; P06764 21-256) (receptor)”, the Response rises from 0.313 nm to 0.323 nm.

First: HSV2-gE_P317F S338G_gI (from UniProt P89475 21-416; P06764 21-256) (receptor)
Second: HSV2-gE_P317F S338H_gI (from UniProt P89475 21-416; P06764 21-256) (receptor)
The Response of the first is lower: 0.153 nm for the first, 0.182 nm for the second.

Compared with “HSV2-gE_P317F S338L_gI (from UniProt P89475 21-416; P06764 21-256) (receptor)”, “HSV2-gE_P317F V340M_gI (from UniProt P89475 21-416; P06764 21-256) (receptor)” is lower in Response: 0.442 nm for the first, 0.259 nm for the second.

Going from “HSV2-gE_P317F V340R_gI (from UniProt P89475 21-416; P06764 21-256) (receptor)” to “HSV2-gE_P317F V340W_gI (from UniProt P89475 21-416; P06764 21-256) (receptor)”, the Response falls from 0.301 nm to 0.116 nm.

Going from “HSV2-gE_P317K S338G_gI (from UniProt P89475 21-416; P06764 21-256) (receptor)” to “HSV2-gE_P317K S338H_gI (from UniProt P89475 21-416; P06764 21-256) (receptor)”, the Response falls from 0.198 nm to 0.146 nm.

First: HSV2-gE_P317K S338L_gI (from UniProt P89475 21-416; P06764 21-256) (receptor)
Second: HSV2-gE_P317K V340M_gI (from UniProt P89475 21-416; P06764 21-256) (receptor)
The Response of the first is higher: 0.334 nm for the first, 0.238 nm for the second.

“HSV2-gE_P317K V340R_gI (from UniProt P89475 21-416; P06764 21-256) (receptor)” was tested, and the Response was 0.508 nm.

“HSV2-gE_H245S P319G_gI (from UniProt P89475 21-416; P06764 21-256) (receptor)” and “HSV2-gE_H245S P319L_gI (from UniProt P89475 21-416; P06764 21-256) (receptor)” are within 1.5-fold of each other in koff: 0.0027 s⁻¹ for the first, 0.0019 s⁻¹ for the second.

“HSV2-gE_P317F S338G_gI (from UniProt P89475 21-416; P06764 21-256) (receptor)” and “HSV2-gE_P317F S338H_gI (from UniProt P89475 21-416; P06764 21-256) (receptor)” are within 1.5-fold of each other in koff: 0.00248 s⁻¹ for the first, 0.00167 s⁻¹ for the second.

“HSV2-gE_P317F S338L_gI (from UniProt P89475 21-416; P06764 21-256) (receptor)” and “HSV2-gE_P317F V340M_gI (from UniProt P89475 21-416; P06764 21-256) (receptor)” are within 1.5-fold of each other in koff: 0.00165 s⁻¹ for the first, 0.00189 s⁻¹ for the second.

First: HSV2-gE_P317F V340R_gI (from UniProt P89475 21-416; P06764 21-256) (receptor)
Second: HSV2-gE_P317F V340W_gI (from UniProt P89475 21-416; P06764 21-256) (receptor)
The koff of the first is 1.9-fold lower: 0.00218 s⁻¹ for the first, 0.00414 s⁻¹ for the second.

“HSV2-gE_P317K S338G_gI (from UniProt P89475 21-416; P06764 21-256) (receptor)” and “HSV2-gE_P317K S338H_gI (from UniProt P89475 21-416; P06764 21-256) (receptor)” are within 1.5-fold of each other in koff: 0.00167 s⁻¹ for the first, 0.00195 s⁻¹ for the second.

“HSV2-gE_P317K S338L_gI (from UniProt P89475 21-416; P06764 21-256) (receptor)” and “HSV2-gE_P317K V340M_gI (from UniProt P89475 21-416; P06764 21-256) (receptor)” are within 1.5-fold of each other in koff: 0.0016 s⁻¹ for the first, 0.00199 s⁻¹ for the second.

Work on “HSV2-gE_P317K V340R_gI (from UniProt P89475 21-416; P06764 21-256) (receptor)” yielded a koff of 0.00163 s⁻¹.

“HSV2-gE_H245S P319G_gI (from UniProt P89475 21-416; P06764 21-256) (receptor)” and “HSV2-gE_H245S P319L_gI (from UniProt P89475 21-416; P06764 21-256) (receptor)” are within 1.5-fold of each other in kon: 7440 M⁻¹ s⁻¹ for the first, 6520 M⁻¹ s⁻¹ for the second.

“HSV2-gE_P317F S338G_gI (from UniProt P89475 21-416; P06764 21-256) (receptor)” and “HSV2-gE_P317F S338H_gI (from UniProt P89475 21-416; P06764 21-256) (receptor)” are within 1.5-fold of each other in kon: 6220 M⁻¹ s⁻¹ for the first, 4910 M⁻¹ s⁻¹ for the second.

“HSV2-gE_P317F S338L_gI (from UniProt P89475 21-416; P06764 21-256) (receptor)” and “HSV2-gE_P317F V340M_gI (from UniProt P89475 21-416; P06764 21-256) (receptor)” are within 1.5-fold of each other in kon: 7370 M⁻¹ s⁻¹ for the first, 6510 M⁻¹ s⁻¹ for the second.

“HSV2-gE_P317F V340R_gI (from UniProt P89475 21-416; P06764 21-256) (receptor)” and “HSV2-gE_P317F V340W_gI (from UniProt P89475 21-416; P06764 21-256) (receptor)” are within 1.5-fold of each other in kon: 5880 M⁻¹ s⁻¹ for the first, 7170 M⁻¹ s⁻¹ for the second.

“HSV2-gE_P317K S338G_gI (from UniProt P89475 21-416; P06764 21-256) (receptor)” and “HSV2-gE_P317K S338H_gI (from UniProt P89475 21-416; P06764 21-256) (receptor)” are within 1.5-fold of each other in kon: 7030 M⁻¹ s⁻¹ for the first, 5780 M⁻¹ s⁻¹ for the second.

“HSV2-gE_P317K S338L_gI (from UniProt P89475 21-416; P06764 21-256) (receptor)” and “HSV2-gE_P317K V340M_gI (from UniProt P89475 21-416; P06764 21-256) (receptor)” are within 1.5-fold of each other in kon: 6350 M⁻¹ s⁻¹ for the first, 6690 M⁻¹ s⁻¹ for the second.

In the case of “HSV2-gE_P317K V340R_gI (from UniProt P89475 21-416; P06764 21-256) (receptor)”, the kon is reported as 6740 M⁻¹ s⁻¹.

Target: human IgG (human)
Assay: BLI Octet, construct on Ni-NTA sensor, hIgG in solution

First: HSV2-gE_S338T_gI (from UniProt P89475 21-416; P06764 21-256) (receptor)
Second: HSV2-gE_V340A_gI (from UniProt P89475 21-416; P06764 21-256) (receptor)
The Kd of the first is 2.5-fold lower: 186 nM for the first, 474 nM for the second. The first binds more tightly here.

“HSV2-gE_V340M_gI (from UniProt P89475 21-416; P06764 21-256) (receptor)” and “HSV2-gE_V340P_gI (from UniProt P89475 21-416; P06764 21-256) (receptor)” are within 1.5-fold of each other in Kd: 278 nM for the first, 321 nM for the second.

First: HSV2-gE_V340Q_gI (from UniProt P89475 21-416; P06764 21-256) (receptor)
Second: HSV2-gE_V340R_gI (from UniProt P89475 21-416; P06764 21-256) (receptor)
The Kd of the first is higher: 239 nM for the first, under 0.001 nM for the second. The second binds more tightly here.

First: HSV2-gE_S338T_gI (from UniProt P89475 21-416; P06764 21-256) (receptor)
Second: HSV2-gE_V340A_gI (from UniProt P89475 21-416; P06764 21-256) (receptor)
The Response (nm) of the first is higher: 0.785 nm for the first, 0.356 nm for the second.

Going from “HSV2-gE_V340M_gI (from UniProt P89475 21-416; P06764 21-256) (receptor)” to “HSV2-gE_V340P_gI (from UniProt P89475 21-416; P06764 21-256) (receptor)”, the Response (nm) falls from 0.621 nm to 0.566 nm.

Compared with “HSV2-gE_V340Q_gI (from UniProt P89475 21-416; P06764 21-256) (receptor)”, “HSV2-gE_V340R_gI (from UniProt P89475 21-416; P06764 21-256) (receptor)” is lower in Response (nm): 0.32 nm for the first, 0.201 nm for the second.

Compared with “HSV2-gE_S338T_gI (from UniProt P89475 21-416; P06764 21-256) (receptor)”, “HSV2-gE_V340A_gI (from UniProt P89475 21-416; P06764 21-256) (receptor)” is 1.7-fold higher in koff: 0.00254 s⁻¹ for the first, 0.00422 s⁻¹ for the second.

“HSV2-gE_V340M_gI (from UniProt P89475 21-416; P06764 21-256) (receptor)” and “HSV2-gE_V340P_gI (from UniProt P89475 21-416; P06764 21-256) (receptor)” are within 1.5-fold of each other in koff: 0.00399 s⁻¹ for the first, 0.00465 s⁻¹ for the second.

First: HSV2-gE_V340Q_gI (from UniProt P89475 21-416; P06764 21-256) (receptor)
Second: HSV2-gE_V340R_gI (from UniProt P89475 21-416; P06764 21-256) (receptor)
The koff of the first is higher: 0.00218 s⁻¹ for the first, under 1e-07 s⁻¹ for the second.

First: HSV2-gE_S338T_gI (from UniProt P89475 21-416; P06764 21-256) (receptor)
Second: HSV2-gE_V340A_gI (from UniProt P89475 21-416; P06764 21-256) (receptor)
The kon of the first is 1.5-fold higher: 13600 M⁻¹ s⁻¹ for the first, 8910 M⁻¹ s⁻¹ for the second.

“HSV2-gE_V340M_gI (from UniProt P89475 21-416; P06764 21-256) (receptor)” and “HSV2-gE_V340P_gI (from UniProt P89475 21-416; P06764 21-256) (receptor)” are within 1.5-fold of each other in kon: 14300 M⁻¹ s⁻¹ for the first, 14500 M⁻¹ s⁻¹ for the second.

“HSV2-gE_V340Q_gI (from UniProt P89475 21-416; P06764 21-256) (receptor)” and “HSV2-gE_V340R_gI (from UniProt P89475 21-416; P06764 21-256) (receptor)” are within 1.5-fold of each other in kon: 9090 M⁻¹ s⁻¹ for the first, 6650 M⁻¹ s⁻¹ for the second.
